Assay results as given in US6365366.

Legend:
Design in all cases: key to the marks not given beside the values
[1] = tested on: T1, GGSFCTSL peptide (SEQ ID NO:6)
T1 sequence: GGSFCTSL

[2] = tested on: T2, GGSLCTSF peptide (SEQ ID NO:4)
T2 sequence: GGSLCTSF

[3] = tested on: T3, DQGSFCTSL peptide (SEQ ID NO:7)
T3 sequence: DQGSFCTSL

[4] = tested on: T4, VDQGSIAASFVGT peptide (SEQ ID NO:10)
T4 sequence: VDQGSIAASFVGT

[5] = tested on: T5, GGSLMTSF peptide (SEQ ID NO:5)
T5 sequence: GGSLMTSF

[6] = tested on: T6, VDQGSLAASFVGT peptide (SEQ ID NO:8)
T6 sequence: VDQGSLAASFVGT

[7] = tested on: T7, AKDVDQGSLCTSLVGTLQY peptide (SEQ ID NO:12)
T7 sequence: AKDVDQGSLCTSLVGTLQY

[8] = tested on: T8, AKDVDQGSVCTSFVGTLQY peptide (SEQ ID NO:11)
T8 sequence: AKDVDQGSVCTSFVGTLQY

[9] = tested on: T9, AKDVDQGSFCTSLVGTLQY peptide (SEQ ID NO:13)
T9 sequence: AKDVDQGSFCTSLVGTLQY

[10] = tested on: T10, VDQGSMAASLVGT peptide (SEQ ID NO:9)
T10 sequence: VDQGSMAASLVGT

Measured: T2K substrate specificity

T2K kinase
+++: all assays above
